The numbers were not newly measured in article PMC11231438, which cites them from elsewhere.

What is called Kd is a measure of binding affinity in units of concentration.

The data set has as its target plasminogen (Homo sapiens) (UniProt P00747).
Chain of UniProt P00747 (P00747 20-810): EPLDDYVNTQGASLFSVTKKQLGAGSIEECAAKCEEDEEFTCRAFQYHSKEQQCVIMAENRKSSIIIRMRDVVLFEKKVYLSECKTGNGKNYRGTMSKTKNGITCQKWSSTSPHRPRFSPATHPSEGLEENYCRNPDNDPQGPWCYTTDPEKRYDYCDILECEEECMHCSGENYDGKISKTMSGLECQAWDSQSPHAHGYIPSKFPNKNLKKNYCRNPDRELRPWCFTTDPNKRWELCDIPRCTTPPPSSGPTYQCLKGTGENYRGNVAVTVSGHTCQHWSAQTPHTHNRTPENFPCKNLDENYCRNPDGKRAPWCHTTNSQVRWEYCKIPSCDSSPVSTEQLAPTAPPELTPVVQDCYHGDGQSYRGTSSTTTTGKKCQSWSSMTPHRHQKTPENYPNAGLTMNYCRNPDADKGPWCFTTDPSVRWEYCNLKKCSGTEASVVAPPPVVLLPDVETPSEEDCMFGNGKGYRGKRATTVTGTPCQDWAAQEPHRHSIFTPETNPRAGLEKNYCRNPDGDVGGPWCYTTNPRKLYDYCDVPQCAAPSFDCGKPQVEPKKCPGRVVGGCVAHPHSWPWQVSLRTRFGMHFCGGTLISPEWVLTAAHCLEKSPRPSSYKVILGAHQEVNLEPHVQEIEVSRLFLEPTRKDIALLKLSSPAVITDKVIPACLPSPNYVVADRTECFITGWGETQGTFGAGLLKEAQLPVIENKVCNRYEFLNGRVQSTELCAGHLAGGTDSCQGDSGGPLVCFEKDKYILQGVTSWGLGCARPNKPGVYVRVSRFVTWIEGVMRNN

Take enolase (from UniProt Q96X30): the Kd was 530 nM.
